Assay results from the Human Domainome abundance scans (Beltran et al. 2025).
± gives the uncertainty stated by the source.

B1: Zinc finger MYM-type protein 6, residues 427 to 504; numbered along this chain, O95789 (parent)
chain: KLKCQHCNHLFATKPELLFYKGKMFLFCGKNCSDEYKKKNKVVAMCDYCKLQKIIKETVRFSGVDKPFCSEVCKFLSA

Variants of: B1
Assay: abundance fitness (aPCA) (normalised: wild type 0, dead -1); higher = more abundant; growth selection in yeast, the domain comes from the species named
Details: Homo sapiens
With Y48Q the abundance fitness was 0.059 ± 0.14. Y48M gave an abundance fitness of -0.65 ± 0.17. Variant Y48A has an abundance fitness of -0.557 ± 0.11. Work on V43A yielded an abundance fitness of -0.423 ± 0.19. For V43L, the abundance fitness was -0.7 ± 0.33. In the case of V59M, the abundance fitness is reported as 0.461 ± 0.24. With V59Y the abundance fitness was -0.536 ± 0.42. With V59K the abundance fitness was -0.051 ± 0.11. V59P showed an abundance fitness of -0.246 ± 0.15. V59C gave an abundance fitness of -0.452 ± 0.38. V59R showed an abundance fitness of -0.42 ± 0.084. With E16H the abundance fitness was -0.307 ± 0.19. In the case of E16D, the abundance fitness is reported as -0.169 ± 0.12. E16S gave an abundance fitness of -0.146 ± 0.043. K38A showed an abundance fitness of 0.023 ± 0.029. Work on S62H yielded an abundance fitness of 0.585 ± 0.089. Work on Y36M yielded an abundance fitness of -0.093 ± 0.056. In the case of Y36A, the abundance fitness is reported as -0.074 ± 0.03. F75I gave an abundance fitness of 0.02 ± 0.22. F75Q gave an abundance fitness of 0.096 ± 0.28. For F75D, the abundance fitness was 0.671 ± 0.11. For Y20N, the abundance fitness was -0.059 ± 0.065. Y20D showed an abundance fitness of -0.033 ± 0.047. With Y20G the abundance fitness was -0.078 ± 0.029. For Y20Q, the abundance fitness was -0.01 ± 0.045. Y20A showed an abundance fitness of 0.031 ± 0.03. With C69A the abundance fitness was -1.23 ± 0.28. In the case of C69S, the abundance fitness is reported as -0.539 ± 0.15. C69Q showed an abundance fitness of -0.404 ± 0.19. C69W gave an abundance fitness of -0.71 ± 0.16. Variant S70H has an abundance fitness of -0.248 ± 0.18. Work on E71N yielded an abundance fitness of 0.491 ± 0.44. E71L showed an abundance fitness of -0.962 ± 0.19. G63Q gave an abundance fitness of -0.191 ± 0.18. Variant G63D has an abundance fitness of 0.098 ± 0.14. Work on D65T yielded an abundance fitness of -0.208 ± 0.36. For D65P, the abundance fitness was -0.339 ± 0.21. In the case of I54M, the abundance fitness is reported as 0.623 ± 0.083. For P67K, the abundance fitness was 0.486 ± 0.17. In the case of L18G, the abundance fitness is reported as -0.033 ± 0.032. L18P showed an abundance fitness of -0.307 ± 0.039. E35T showed an abundance fitness of -0.127 ± 0.092. E35A gave an abundance fitness of -0.024 ± 0.029. In the case of E35W, the abundance fitness is reported as -0.11 ± 0.038. For K1L, the abundance fitness was -0.271 ± 0.047. For K30M, the abundance fitness was -0.059 ± 0.038. For D34S, the abundance fitness was -0.056 ± 0.041. For D34M, the abundance fitness was -0.091 ± 0.055. With D34V the abundance fitness was -0.017 ± 0.032. Variant D34Q has an abundance fitness of -0.034 ± 0.048. In the case of D34G, the abundance fitness is reported as -0.078 ± 0.029. E57T showed an abundance fitness of 0.026 ± 0.13. Q5Y gave an abundance fitness of -0.057 ± 0.085. With P15T the abundance fitness was -0.132 ± 0.045. With P15V the abundance fitness was -0.37 ± 0.037. Variant K53C has an abundance fitness of 0.367 ± 0.12. K53G gave an abundance fitness of -0.148 ± 0.067. In the case of K53P, the abundance fitness is reported as -0.154 ± 0.15. For C46V, the abundance fitness was -0.308 ± 0.11. Variant K3R has an abundance fitness of -0.075 ± 0.032. In the case of K3D, the abundance fitness is reported as -0.186 ± 0.079. For K3V, the abundance fitness was -0.138 ± 0.034. For V72E, the abundance fitness was 0.535 ± 0.073. V72L gave an abundance fitness of 0.003 ± 0.12. For C49W, the abundance fitness was -1.05 ± 0.22. In the case of C49S, the abundance fitness is reported as -0.489 ± 0.13. With N8P the abundance fitness was -0.129 ± 0.035. N8V gave an abundance fitness of -0.088 ± 0.031. In the case of N8K, the abundance fitness is reported as 0.01 ± 0.043. Variant L51M has an abundance fitness of 0.805 ± 0.092. Variant L51G has an abundance fitness of 0.484 ± 0.058. In the case of L51V, the abundance fitness is reported as -0.119 ± 0.091. H9C gave an abundance fitness of -0.085 ± 0.042. Variant F68Q has an abundance fitness of -0.341 ± 0.17. Work on F68R yielded an abundance fitness of -0.516 ± 0.11. With F68W the abundance fitness was -0.651 ± 0.12. F68A gave an abundance fitness of -0.036 ± 0.12. K56P gave an abundance fitness of 0.182 ± 0.12. In the case of C28F, the abundance fitness is reported as -0.855 ± 0.25. Variant A78C has an abundance fitness of -0.897 ± 0.43. For A44Y, the abundance fitness was -1.28 ± 0.26. For A44Q, the abundance fitness was 0.054 ± 0.21. Work on T13E yielded an abundance fitness of -0.06 ± 0.04. In the case of T13Y, the abundance fitness is reported as -0.029 ± 0.073. T13D showed an abundance fitness of -0.146 ± 0.046. In the case of T13C, the abundance fitness is reported as -0.201 ± 0.056. T13K gave an abundance fitness of -0.056 ± 0.051. T13V gave an abundance fitness of -0.098 ± 0.042. For G22P, the abundance fitness was -0.33 ± 0.071. In the case of K14P, the abundance fitness is reported as -0.182 ± 0.043. For K14Q, the abundance fitness was -0.126 ± 0.12. For K14Y, the abundance fitness was -0.492 ± 0.11. In the case of K14R, the abundance fitness is reported as -0.104 ± 0.031. Variant N40D has an abundance fitness of 0.019 ± 0.06. N40R gave an abundance fitness of -0.045 ± 0.06. Work on S77Q yielded an abundance fitness of -0.303 ± 0.24. In the case of F27G, the abundance fitness is reported as -0.545 ± 0.037. F27S showed an abundance fitness of -0.459 ± 0.039. Work on F27C yielded an abundance fitness of -0.025 ± 0.068. H6G gave an abundance fitness of -0.04 ± 0.027. For H6E, the abundance fitness was 0.008 ± 0.034. Work on H6F yielded an abundance fitness of -0.14 ± 0.062. Variant H6K has an abundance fitness of -0.46 ± 0.43. For F25V, the abundance fitness was -0.009 ± 0.039. F25D gave an abundance fitness of -0.031 ± 0.046. F25E showed an abundance fitness of -0.049 ± 0.035. Variant K39A has an abundance fitness of 0.029 ± 0.03. In the case of K39P, the abundance fitness is reported as -0.055 ± 0.048. Variant K39V has an abundance fitness of -0.023 ± 0.044. Work on F11S yielded an abundance fitness of -0.094 ± 0.043. In the case of F11G, the abundance fitness is reported as -0.171 ± 0.029. Variant F11V has an abundance fitness of 0.031 ± 0.032. Work on F11I yielded an abundance fitness of -0.25 ± 0.13. F11H gave an abundance fitness of -0.354 ± 0.088. Variant T58K has an abundance fitness of 0.055 ± 0.44. For T58P, the abundance fitness was -0.328 ± 0.21. Variant K66Q has an abundance fitness of -0.348 ± 0.23. With F61I the abundance fitness was 0.679 ± 0.22. Work on F61S yielded an abundance fitness of 0.538 ± 0.11. In the case of C7N, the abundance fitness is reported as -0.23 ± 0.12. Variant C7G has an abundance fitness of -0.442 ± 0.03. In the case of C7P, the abundance fitness is reported as -1.07 ± 0.11. In the case of R60D, the abundance fitness is reported as 0.342 ± 0.21. For R60S, the abundance fitness was 0.39 ± 0.13. With R60P the abundance fitness was 0.116 ± 0.12. Work on R60Q yielded an abundance fitness of 0.014 ± 0.16. Variant L2V has an abundance fitness of 0.01 ± 0.031. With L2H the abundance fitness was -0.131 ± 0.11. Variant F19M has an abundance fitness of -0.196 ± 0.064. In the case of F19D, the abundance fitness is reported as 0.126 ± 0.056. For C73R, the abundance fitness was -0.863 ± 0.15. For G29T, the abundance fitness was -0.145 ± 0.045. G29S gave an abundance fitness of -0.123 ± 0.038. With I55A the abundance fitness was 0.243 ± 0.082. Variant I55M has an abundance fitness of 0.211 ± 0.31. Variant C32Q has an abundance fitness of -0.944 ± 0.35. For N31G, the abundance fitness was -0.026 ± 0.029. N31F gave an abundance fitness of -0.229 ± 0.07. N31E gave an abundance fitness of -0.058 ± 0.039. N31Q showed an abundance fitness of -0.036 ± 0.035. S33A showed an abundance fitness of -0.032 ± 0.031. Variant S33T has an abundance fitness of -0.127 ± 0.056. K23M showed an abundance fitness of -0.041 ± 0.058. K23F gave an abundance fitness of -0.15 ± 0.1. Variant K21S has an abundance fitness of 0.012 ± 0.044. With K21E the abundance fitness was 0.008 ± 0.036. In the case of K21D, the abundance fitness is reported as -0.004 ± 0.041. In the case of K21F, the abundance fitness is reported as -0.03 ± 0.057. Variant L17G has an abundance fitness of -0.042 ± 0.03. In the case of L17K, the abundance fitness is reported as 0.102 ± 0.046. L17C gave an abundance fitness of -0.011 ± 0.046. Work on C4H yielded an abundance fitness of -0.649 ± 0.5. For C4L, the abundance fitness was -0.698 ± 0.071. Variant C4D has an abundance fitness of -0.879 ± 0.25. Work on L10P yielded an abundance fitness of 0.034 ± 0.046. In the case of L10C, the abundance fitness is reported as -0.05 ± 0.09. Q52A showed an abundance fitness of -0.485 ± 0.11. With Q52L the abundance fitness was -0.128 ± 0.093. Variant M45V has an abundance fitness of -0.145 ± 0.096. Work on M45A yielded an abundance fitness of 0.039 ± 0.089. In the case of A12P, the abundance fitness is reported as -0.131 ± 0.04. For A12S, the abundance fitness was -0.072 ± 0.041. Variant A12V has an abundance fitness of -0.223 ± 0.034. In the case of A12F, the abundance fitness is reported as -0.181 ± 0.053. A12T showed an abundance fitness of -0.056 ± 0.043. L26D showed an abundance fitness of -0.066 ± 0.056. In the case of L26R, the abundance fitness is reported as 0.089 ± 0.029.
